Laboratory results reported in the supplement of paper PMC10567573.

B1: CDC25A (parent)
chain: KPIVPTDGKRVIVVFHCEFSSERG
B2: PTPRD (parent)
chain: MVHVARLLLLLLTFFLRTDAETPP

Variants of: B1
Assay: protein stability index of a GFP-peptide fusion (GPS, HEK-293T) (PSI 1-6); higher = more stable
Details: c terminus: a fixed tail appended
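Also: lentivirally expressed fusions sorted by FACS into six bins by GFP to DsRed ratio, PSI derived from sequencing read proportions per bin multiplied by bin number.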

Protein stability index, by site and new letter:
K1: D 2.13; A 1.37; C 3.33

Variants of: B2
Assay: as above
Details: c terminus: a fixed tail appended

Protein stability index of substitutions, site by site:
L12: H 1.58; V 1.57; Y 3.69; I 2.03; N 2.12; R 2.03; K 2.63; D 1.57; Q 2.2; E 2.51; C 3.16; G 2.46; W 2.53; F 3; S 2.3; P 2.19
F14: Q 2.15; P 2.45; E 1.57; C 1.47; H 1.25; I 2.56; M 3.79; K 1.61; G 1.48; S 1.99; D 1.79; L 1.98; A 1.93; N 2.07; Y 1.86; R 1.98
R17: F 2.87; D 2.22; Y 2.3; Q 1.92; V 2.9; I 2.17; N 3.08; E 1.62; P 1.87; T 2.79; L 2.77
E21: M 3.64; K 2.66; F 3.22; C 2.82; V 2.83; A 3.13; Y 2.55; Q 4.35; L 2.79
L11: K 1.69; P 3.92; M 3.56; I 2.14; N 3.99; F 2.56; H 1.97; V 1.84; S 3.85; W 3.02
D19: F 3.69; V 3.32; S 1.84; N 2.96; I 2.41; A 2.91; C 4.03; K 2.29; L 2.71; Q 2.75
F15: I 2.25; E 2.21; V 2.2; D 2.02; N 3.47; P 2.01; H 4.29; Y 3; M 2.34; W 2.81; L 2.13
A20: I 1.81; H 3.11; F 1.84; E 2.48; Q 2.29; D 1.29; G 1.84; L 2.99
L16: P 2.65; Y 1.52; G 2.65; F 1.37; S 2.22; W 1.81; R 1.72; A 1.49; K 1.72; M 4.18; D 3.53; N 2.12; E 3.34; H 2.35; Q 1.74; T 2.68
T13: N 2.05; R 2.04; Q 1.32; G 2.01; M 3.59; S 2.31; P 2.14; K 2.03; W 3.29; I 4.2; H 1.77
T18: Y 2.88; K 3.74; V 2.63; S 2.48; E 2.04; R 3.3; G 2.47; M 2.62; F 3.28; N 2.38; C 1.86; D 2.18; H 2.3
P23: Y 3.76; T 1.86; N 2.49; S 2.84; Q 3.52; E 2.31; M 2.86; F 2.96; A 2.42; R 3.55; V 2.46
T22: D 2.81; N 2.05; H 2.36; W 5.11; E 2.08; V 3.03; S 4.07; R 3.51; F 1.95
P24: I 2.26; C 4.5; A 3.4; T 3.52; Q 3.53; S 4.91; L 2.27; M 3.61; N 1.73; D 2.73; Y 2.67; F 1.99; V 2.77
